From the supplement of paper PMC9732359
± gives the uncertainty stated by the source.

Assay: protein stability index of a GFP-peptide fusion (yeast GPS) (PSI 1-4); higher = more stable; sorted into four equal gates, so the index is relative within each strain
Procedure, shortened: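 Yeast carrying a pooled library were grown to mid-log phase in leucine-free medium. Each library plasmid expresses Cherry and has a tiled 17-residue yeast protein peptide fused downstream of GFP. Cells were sorted into four equal gates by GFP/Cherry ratio, and plasmids from each gate were PCR-amplified, Illumina-sequenced and assigned to strains by barcode. Summing, across gates, the read frequency times the gate number gave each peptide's protein stability index.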

Sequence	protein stability index (pdr5∆)	protein stability index (san1∆)	protein stability index (ubr1∆)	protein stability index (doa10∆)
EFIPHSTEYMMQFAKSK [RPN6]	3.28 ± 0.17	2.8 ± 0.1	1.91 ± 0.14	–
MAGVKAYELRTKSKEQL [RPL35A]	3.38 ± 0.1	2.94 ± 0.067	3.17 ± 0.13	3 ± 0.11
TTFRNEYGKHDFKNEES [MED8]	3.01 ± 0.084	3.14 ± 0.051	3.28 ± 0.096	3.05 ± 0.1
DWVRFLALALGILYMGQ [RPN1]	1.45 ± 0.086	2.08 ± 0.14	1.24 ± 0.18	1.36 ± 0.096
KSQEQREHSLQLFRTNK [PRP28]	2.51 ± 0.11	2.88 ± 0.12	2.9 ± 0.076	3 ± 0.24
DTTVPKRLGPKRANNIR [RPS6A]	3.68 ± 0.11	3.19 ± 0.051	3.37 ± 0.063	3.46 ± 0.11
PSTKVASSAVMNRRKIA [YLR335W/NUP2]	1.77 ± 0.062	2.14 ± 0.12	2.38 ± 0.073	1.41 ± 0.071
HTQANEPNSAKKIRFLQ [RGR1]	3.51 ± 0.11	3.12 ± 0.22	3.33 ± 0.18	2.98 ± 0.24
IIKRSNGQSLSPVRSDS [YMR153W/NUP53]	2.87 ± 0.058	2.76 ± 0.064	2.81 ± 0.037	2.64 ± 0.093
ASYAKYLIDHIKVEGAV [RPL22A]	3.13 ± 0.15	2.85 ± 0.092	3.23 ± 0.11	2.95 ± 0.17
LEILIVTKDGVRKEFYE [PRE7]	2.54 ± 0.049	3.14 ± 0.043	2.92 ± 0.049	2.91 ± 0.063
GAMTPEEIFFKSVRILK [RPC40]	3.28 ± 0.14	2.96 ± 0.14	3.22 ± 0.093	2.9 ± 0.12
IKIEDFVDDMLRDYRFE [SNF5]	3.16 ± 0.073	3.1 ± 0.067	2.97 ± 0.078	3 ± 0.068
FQNSKSASLFKQRKNPR [RPL24A]	2.44 ± 0.077	2.49 ± 0.1	1.85 ± 0.053	2.11 ± 0.097
KVKPIRGFCQRLKGKQG [RPO31]	2.97 ± 0.16	2.79 ± 0.13	–	2.79 ± 0.14
CVRVQLIKNGKKVTAFV [RPS23A]	2.66 ± 0.093	3.16 ± 0.13	3.13 ± 0.088	2.59 ± 0.085
PNTSDNNNNSNNHNMRN [SWI1]	3.02 ± 0.059	2.93 ± 0.046	3.15 ± 0.038	3.12 ± 0.053
HFVRDLGTIESAQAETE [DIS3]	2.42 ± 0.13	2.85 ± 0.21	2.49 ± 0.095	2.16 ± 0.26
EEIPINSSEQESDYEPN [SIR3]	3.15 ± 0.067	3 ± 0.045	2.77 ± 0.048	2.82 ± 0.068
CHDELKALPMLEQVEFE [MED4]	3.12 ± 0.3	2.7 ± 0.21	3.29 ± 0.12	3.17 ± 0.14
QLLEKAPIPIREDIDDP [BRR2]	2.55 ± 0.066	2.37 ± 0.088	1.92 ± 0.058	2.64 ± 0.064

Sequence	protein stability index (pdr5∆)	protein stability index (san1∆)	protein stability index (ubr1∆)	protein stability index (doa10∆)
NWIKPSDSEIPPLLVYK [PRP8]	2.24 ± 0.056	2.21 ± 0.075	2.12 ± 0.063	2.16 ± 0.065
VISLGPNLATFISSGTS [YJL039C/NUP192]	2.64 ± 0.065	2.36 ± 0.073	2.3 ± 0.046	2.33 ± 0.061
QTDADRVKDPQWLIMLG [RIP1]	3.22 ± 0.11	–	2.6 ± 0.12	3.19 ± 0.16
KTCIQGINSPLSSVALR [YJL039C/NUP192]	1.41 ± 0.25	–	–	–
TATTGKRKPAKSSSNRS [RPN4]	2.96 ± 0.07	2.68 ± 0.047	2.85 ± 0.047	2.68 ± 0.065
KNFKGIEEIEYNVKNII [PCI8]	3.04 ± 0.093	3.11 ± 0.061	3.05 ± 0.063	3.05 ± 0.078
TSAHLKLKEMQKVLNAH [SMC4]	2.76 ± 0.17	2.63 ± 0.096	1.97 ± 0.085	2.41 ± 0.13
WLWPLCRGELKADIGKP [CDC53]	2.06 ± 0.062	1.98 ± 0.089	2.43 ± 0.09	2.11 ± 0.078
IEHPMTSAIEVLVGSCA [RPN1]	1.81 ± 0.042	2.14 ± 0.057	1.82 ± 0.046	1.94 ± 0.043
TWIHSEIEELKSSIQNL [SMC3]	2.3 ± 0.068	2.29 ± 0.21	3.08 ± 0.11	2.27 ± 0.11
SFGNREEFINKLVKAMN [RPL7B]	1.94 ± 0.17	–	2.75 ± 0.073	2.03 ± 0.13
SDIESANNQEYDLNFKL [SMC1]	–	–	–	3.12 ± 0.29
DADGDIDMGEDKENVPV [DPB4]	3.29 ± 0.13	3.01 ± 0.15	3.66 ± 0.13	3.12 ± 0.17
LIQSTEFPSITSSVILG [YOR098C/NUP1]	3.44 ± 0.11	2.11 ± 0.13	3.17 ± 0.079	3.16 ± 0.12
RQSSDESDNYRLLPNGS [YML031W/NDC1]	2.97 ± 0.06	3.13 ± 0.078	3.05 ± 0.054	3.03 ± 0.06
DSRKNREQSSNDSETHT [BRN1]	3.34 ± 0.19	3.34 ± 0.11	3.52 ± 0.14	3.68 ± 0.17
LALQRGATVFVNHLLLF [DPB4]	1.26 ± 0.036	1.25 ± 0.083	1.34 ± 0.039	1.42 ± 0.046
SLVIIILVKRYSIEMKP [ECM29]	1.38 ± 0.04	1.59 ± 0.069	2.04 ± 0.044	1.15 ± 0.049
FCPGEIVGKSNVLVTMP [YMR129W/POM152]	2.3 ± 0.1	1.82 ± 0.27	2.51 ± 0.085	2.69 ± 0.12
YSLEAIKLGSTAIGIAT [PUP2]	1.79 ± 0.08	1.43 ± 0.15	1.32 ± 0.069	1.54 ± 0.066
